# Assay results: article PMC3257528 (The Journal of Cell Biology, 2011)
# Numbering of substitutions follows the chain as printed. Names may count otherwise.
# B1: ATL2 (6His-tagged cytoplasmic / soluble domain, ATL2 1–467) (Homo sapiens) (protein)
# chain: MAEGDEAARGQQPHQGLWRRRRTSDPSAAVNHVSSTTSLGENYEDDDLVNSDEVMKKPCPVQIVLAHEDDHNFELDEEALEQILLQEHIRDLNIVVVSVAGAFRKGKSFLLDFMLRYMYNKDSQSWIGGNNEPLTGFTWRGGCERETTGIQVWNEVFVIDRPNGTKVAVLLMDTQGAFDSQSTIKDCATVFALSTMTSSVQVYNLSQNIQEDDLQHLQLFTEYGRLAMEEIYQKPFQTLMFLIRDWSYPYEHSYGLEGGKQFLEKRLQVKQNQHEELQNVRKHIHNCFSNLGCFLLPHPGLKVATNPSFDGRLKDIDEDFKRELRNLVPLLLAPENLVEKEISGSKVTCRDLVEYFKAYIKIYQGEELPHPKSMLQATAEANNLAAVAGARDTYCKSMEQVCGGDKPYIAPSDLERKHLDLKEVAIKQFRSVKKMGGDEFCRRYQDQLEAEIEETYANFIKHNDGKN
# B2: ATL2 (6His-tagged cytoplasmic / soluble domain, ATL2 1–467) (Homo sapiens; E380R/K372E) (protein)
# chain: B1 chain with K372E, E380R
# How the values were obtained:
# [1] = target: ATL2 (6His-tagged cytoplasmic / soluble domain, ATL2 1–467) (Homo sapiens, UniProt Q8NHH9); assay: SEC dimer shift; format: binding; settings: 2 mM GMPPNP (SEC, cross-linking) or 1 mM (EM); 30 min RT
# [2] = substrate: Nc1nc2c(ncn2[C@@H]2O[C@H](COP(=O)(O)OP(=O)(O)OP(=O)(O)O)[C@@H](O)[C@H]2O)c(=O)[nH]1; assay: malachite green phosphate release, Lineweaver-Burk; format: biochemical, Homo sapiens; settings: 1 µM enzyme, 5, 10, 20 µM GTP, 37 °C
Molecule,"SEC dimer shift (Superdex 200), BMOE cross-linking, negative-stain EM [1]",Km [2] [µM]
"Nc1nc2c(ncn2[C@@H]2O[C@H](COP(=O)(O)OP(=O)(O)NP(=O)(O)O)[C@@H](O)[C@H]2O)c(=O)[nH]1 [GMPPNP, guanosine 5′-[β,γ-imido]triphosphate]","wild-type ATL2 formed dimers in the presence, but not in the absence, of GMPPNP",–
B1,–,34
B2,–,44
